Data: the nanobody polyreactivity screen of Harvey et al. (2022)

Assay: yeast display, Sf9 membrane polyspecificity reagent, FACS + sequencing; frameworks hold sequencing errors
In short: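 Sorting gates, low and high (top ~1%), were placed on anti-HA fluorescence to track expression and on streptavidin fluorescence to track reagent binding. A clone's polyreactivity label is taken from the gate it came out of. The reagent was 10% biotinylated, detergent-solubilized Sf9 membrane, applied for 1 hour at 4 °C to galactose-induced yeast display cells.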

Sequence | polyreactivity (PSR sort gate)
QVQLVESGGGLVQAGGSLRLSCAASGSTFVWYAMGWYRQAPGKEREFVATISWSDGSTYYADSVKGRFTISRDNAKNTVYLQKNSLKPEDTAVYYCATDVDRFFTYKYDYWGQGTQVTVSS | low polyreactivity
QVQLVESGGGLVQAGGRLRLSCAASGRTVNQYAMGWYRQAPGKERELVAAISWSGGRTYYADSVKGRFTISRDNDKNTDYLQMNSLKPEDTAVYYCNKLTRDGRKEDYWGQGTQVTVSS | high polyreactivity
QVQLVESGGGLVQAGGSLRLSCAASGLTIGYYAMGWYRQAPGKERELVATITWRGVRTYYADSVKGRFTISRDNAKNTVYLQMNSLKPEDTAVYYCDKGYWSKGERWFGGFGYWGQGTQVTVSS | low polyreactivity
QVQLVESGGGLVQAGGSLRLSCAASGSIFGVYTLGWYRQAPGKERELVAAISGSGGSTSYADSVKGRFTISRDNAKNTVYLQMTSLKPEDTAGYYCATRFPNIPPYDSLGQGTQVTVSS | low polyreactivity
QVQLVESGGGLVQAGGSLRLSCAASGRTFSKYAMGWYRQAPGKERELVASITWSGGTTNYADSVKGRFTISRDNAKNTVYLQMNSLKPEDTAVYYCNADGYLAERFFIRLDEYRDYDYWGQGTQVTVSS | low polyreactivity
QVQLVESGGGLVQAGGSLRLSCAASGRIFKYYTMGWYRQAPGKERELVAAISRDDSTNYADSVKGRFTISRDNAKNTVYLQMNSLKPEDTAVYYCAKGYHQYAGFYYWGQGTQVTVSS | high polyreactivity
QVQLVESRGGLVQAGGSIRLSCAASGRIFVTYAMGWYRQAPGKERELVAVISWSGGSTYYADSVKGRFTISRDNAKNTVYLQMNSLKPEDTAVYYCARGLRKVRFDFWGQGTQVTVSS | low polyreactivity
QVQLVESGGGLVQAGGSLRLSCAASGIFPWFAMGWYRQAPGKERELVAVITGGDSTNYADSVKGRFTISRDNAKNTVYLQMNSLKPEDTAVYYCAARNTGPVQYYYWGQGTQVTVSS | low polyreactivity
QVQLVESGGGLVQAGGSLRLSCAASGSIFSANVMVWYRQAPGKEWELVAASRRGGTTYYADSVKGRFTISRDNAKNTVYLQMNSLKPEDTAVYYCATDGNFGSYLRFAVAYDYWGQGTQVTVSS | low polyreactivity
QVQLVESGGGLFQAGGSLRLSCAASGSIFEFNAMGWYRQAPGKERELVAGITNSGSSTYYADSVKGRLTISRDHAKNTVYLQMNSLKPEDTAVFYCNARLSRWRRRPYDYWGQGTQVTVSS | high polyreactivity
QVQLVESGGGLVQAGGSLRLSCAASGRTIGAYAMGWYRQAPGKEREFVAAITFGGGPTYYADSVKGRFTISRDNAKNTVYLQMNSLKPEDTAVYYCAKRIDLSFPYARYDYWGQGTQVTVSS | low polyreactivity
QVQLVESGGGLVQAGGSLRLSCAASGSIFYIYAMGWYRQAPGKERELVAGINGGGASTYYADSVKGRFTISRDNAKNTVYLQMNSLKPEDTAVYYCAADIRYLGEYWGQGTQVTVSS | low polyreactivity
QVQLVESGGGLVQAGGSLRLSCAASGRTIGGYVMGWYRQAPGTERELVAVITISGGSTYYADSVKGRFTISRDNAKNTVYLQMNSLKPEDTAVYYCAARTYYGYDYWGQGTQVTVSS | high polyreactivity
QVQLVESGGGLVQAGGSLRLSCAASGRIFVSNDMGWYSQAPGKERELVAAISWSDDSTHYADSVKGRLTISRDNAKNTVYLQMNSLKPEDTAVYYCNKQRYYSTWRYDYWGQGTQVTVSS | low polyreactivity
QVQLVESGGGLVQARGSLRLSCAASGSILDYYVMGWYRQAPGKERELVAAIRGGGSTYYADSVKGRFTISRDNAKNTVYLQMNSLKPEDTAVYYCAKDSQTARDFDYWGQGTQVTVSS | low polyreactivity
QVQLVESGGGLVQAGGSLRLSCAASGRIFPFYTMGWYRQAPGKERELVAAIRNAGSTKYADSVKGRFTISRDNAKNTVYLQMNSLKPEDTAVYYCNADLTRYRRYYWGQGTQVTVSS | low polyreactivity
QVQLVESGGGLVQAGGSLRLSCAASGITFKRYTMGWYRQAPGKERELVAANSRSGGSTYYADSVKGRFTISRDTAKNTVYLQMNSLKPEDTAVYYCAAAVGGYNVAYDYWGQGTQVTVSS | high polyreactivity
